Data taken from PMC12018189, “ATP synthesis of Enterococcus hirae V-ATPase driven by sodium motive force” (The Journal of Biological Chemistry, 2025).

Experiments:
[1] = substrate: Nc1ncnc2c1ncn2[C@@H]1O[C@H](COP(=O)(O)OP(=O)(O)O)[C@@H](O)[C@H]1O; assay: luciferin/luciferase luminescence assay of ATP synthesis, proteoliposomes; type: biochemical, Enterococcus hirae; conditions: ATP synthesis direction, 74 mM Pi, 5 mM MgCl2, pH 7.0, 25 °C, smf 269.3 mV (Δψ 154.7 mV, ΔpNa 114.6 mV)
From the text: luciferin/luciferase luminescence assay of ATP synthesis, proteoliposomes on EhVoV1 (Enterococcus hirae V-ATPase)

purified protein = substrate: O=P(O)(O)O; assay: purified protein; conditions: ATP synthesis direction, 0.5 mM ADP, 5 mM MgCl2, pH 7.0, 25 °C, smf 269.3 mV (Δψ 154.7 mV, ΔpNa 114.6 mV)

B1: EhVoV1 (Enterococcus hirae V-ATPase) (Enterococcus hirae ATCC 9790) (protein)
chain 1: MQIGKIIKVSGPLVMAENMSEASIQDMCLVGDLGVIGEIIEMRQDVASIQVYEETSGIGPGEPVRSTGEALSVELGPGIISQMFDGIQRPLDTFMEVTQSNFLGRGVQLPALDHEKQWWFEATIEEGTEVSAGDIIGYVDETKIIQHKIMVPNGIKGTVQKIESGSFTIDDPICVIETEQGLKELTMMQKWPVRRGRPIKQKLNPDVPMITGQRVIDTFFPVTKGGAAAVPGPFGAGKTVVQHQIAKWSDVDLVVYVGCGERGNEMTDVVNEFPELIDPNTGESLMERTVLIANTSNMPVAAREASIYTGITIAEYFRDMGYDVAIMADSTSRWAEALREMSGRLEEMPGDEGYPAYLGSRLAEYYERSGRVIALGSDQREGSITAISAVSPSGGDISEPVTQNTLRVVKVFWGLDSSLAQKRHFPSINWIQSYSLYSTEVGRYMDQILQQDWSDMVTEGMRILQEEEQLNEIVRLVGIDSLSDNDRLTLEVAKSIREDYLQQNAFDDVDTFTSREKQFNMLKVILTFGKEARKALSLGAYFNEIMEGTVAVRERISRSKYIPEEELAKISSINEEIKETIQLIVSEGGMTDD
chain 2: MIKEYRTIKEVVGPLMAVEKVSGVKYEELIEVRMQNGEIRRGQVLEVQEDKAMVQIFEGTSGINLKNSSVRFLGHPLQLGVSEDMIGRVFDGLGRPKDNGPEILPEKYLDINGEVINPIARDYPDEFIQTGISAIDHLNTLVRGQKLPVFSGSGLPHKELAAQIARQATVLDSSDDFAVVFAAIGITFEEAEFFMEDFRQTGAIDRSVMFMNLANDPAIERIATPRMALTAAEYLAYEKGMHVLVIMTDMTNYAEALREISAARREVPGRRGYPGYLYTNLATLFERAGRIRGLKGSVTQIPILTMPEDDKTHPIPDLTGYITEGQIILTRELYKSGIQPPIDVLPSLSRLKDKGTGAGKTREDHAATMNQLFAAYAQGKQAKELAVVLGESALSDIDKIYAKFAERFENEYVNQGFYTNRTITETLDLGWELLAMLPRTELKRIKDDLLDKYLPEGK
notes: whole VoV1 complex, His tags on c-subunits, expressed in E. coli C41(DE3), DDM-solubilised, Ni-NTA and size exclusion, reconstituted into soybean phosphatidylcholine liposomes; with V-type sodium ATPase subunit D; V-type sodium ATPase subunit G; V-type sodium ATPase subunit E; V-type sodium ATPase subunit F; V-type sodium ATPase subunit C; V-type sodium ATPase subunit I; V-type sodium ATPase …
Km [1]: 21 ± 2 µM
kcat [1]: 4.7 s⁻¹
Km (purified protein): 2100 ± 200 µM
kcat (purified protein): 4.7 s⁻¹
